The target in assay [1] is A/Michigan/45/2015 H1 trimer (for structural studies) (influenza A virus A/Michigan/45/2015 (H1)). The assay is described as follows: cryo-EM structure.
For assay [2], the target named is A/Perth/16/2009 H3 trimer (for structural studies) (influenza A virus A/Perth/16/2009 (H3N2)). Put plainly: crystal structure.
For assay [3] the target is unchanged. The assay is described as follows: cryo-EM structure.

Regarding “A/Michigan/45/2015 H1 trimer (for structural studies) (natural protein)”, in assay [1], the stoichiometry N stood at 3. On to “A/Perth/16/2009 H3 trimer (for structural studies) (natural protein)”, for which the stoichiometry N in assay [2] and in assay [3] was 3 in each case.

These data come from PMC11096021.
